# T1: human IL-5 receptor (Homo sapiens, UniProt Q01344)
# T1 construct: host or cells: subclone of HL60 induced towards eosinophil differentiation with sodium butyrate (endogenous receptor)
# T1 sequence (Q01344 21-420): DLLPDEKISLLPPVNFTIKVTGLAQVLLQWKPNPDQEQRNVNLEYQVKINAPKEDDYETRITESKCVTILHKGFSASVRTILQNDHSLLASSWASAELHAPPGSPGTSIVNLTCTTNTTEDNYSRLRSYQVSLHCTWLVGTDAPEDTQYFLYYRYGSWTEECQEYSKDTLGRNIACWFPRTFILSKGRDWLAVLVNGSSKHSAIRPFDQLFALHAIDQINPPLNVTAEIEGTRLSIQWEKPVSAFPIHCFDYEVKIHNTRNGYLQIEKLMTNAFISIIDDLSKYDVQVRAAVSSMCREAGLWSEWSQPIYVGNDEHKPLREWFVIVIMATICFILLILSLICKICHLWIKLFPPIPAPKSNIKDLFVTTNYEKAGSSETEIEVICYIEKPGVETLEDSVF
# T1 sequence (P32927 17-897 partner): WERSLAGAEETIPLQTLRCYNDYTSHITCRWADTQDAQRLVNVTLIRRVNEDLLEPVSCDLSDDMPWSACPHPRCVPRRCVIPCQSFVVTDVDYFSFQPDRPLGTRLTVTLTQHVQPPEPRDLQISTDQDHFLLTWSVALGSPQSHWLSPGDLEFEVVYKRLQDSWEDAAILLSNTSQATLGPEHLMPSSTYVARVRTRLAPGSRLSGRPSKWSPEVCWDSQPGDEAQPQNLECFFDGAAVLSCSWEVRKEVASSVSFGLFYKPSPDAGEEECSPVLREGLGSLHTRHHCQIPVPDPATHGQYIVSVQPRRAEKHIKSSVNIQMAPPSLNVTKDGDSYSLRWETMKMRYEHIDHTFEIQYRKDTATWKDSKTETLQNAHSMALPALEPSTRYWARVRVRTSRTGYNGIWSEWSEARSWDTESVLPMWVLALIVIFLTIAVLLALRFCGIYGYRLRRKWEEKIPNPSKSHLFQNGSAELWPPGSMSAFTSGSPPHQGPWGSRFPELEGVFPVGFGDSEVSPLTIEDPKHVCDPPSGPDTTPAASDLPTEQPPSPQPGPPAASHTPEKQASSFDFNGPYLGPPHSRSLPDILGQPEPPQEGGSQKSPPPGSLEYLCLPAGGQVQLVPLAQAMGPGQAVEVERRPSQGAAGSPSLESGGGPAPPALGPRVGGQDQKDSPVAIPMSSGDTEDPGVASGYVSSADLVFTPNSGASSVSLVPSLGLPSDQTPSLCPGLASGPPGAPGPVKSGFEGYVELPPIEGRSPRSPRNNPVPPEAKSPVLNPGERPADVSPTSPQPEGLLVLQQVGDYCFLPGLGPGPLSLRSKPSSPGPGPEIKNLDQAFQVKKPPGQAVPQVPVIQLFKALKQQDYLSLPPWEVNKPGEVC
# How the values were obtained:
# [1] = molecular target: T1, human IL-5 receptor; conditions: HL60 subclone, eosinophilic differentiation initiated with sodium butyrate; read-out: Kd of IL-5 binding sites; cited from earlier work
# [2] = molecular target: extracellular domain (ECD) of the IL-5 receptor α chain, soluble (human) (UniProt Q01344); assay: competition with [125I] IL-5 on immobilised soluble IL-5Rα; grade ++ = IC50 of 500 nm or less
IC50 [2] [nM],Molecule,Kd [1] [nM]
,IL-5: lymphokine secreted by T cells and mast cells having biological activities on B cells and eosinophils,0.03
< 500,DGFVCVEWARCPNCR [peptide … (SEQ ID NO:9)],
< 500,DGYVCVEWARCPTCK [peptide … (SEQ ID NO:7)],
< 500,DGYVCVEWARCPMCT [peptide … (SEQ ID NO:8)],
